Series [1] concerns the target DDB1 (UV-DDB subunit);DDB2 (UV-DDB subunit) (human;human) (UniProt Q16531+Q92466). Put plainly: fluorescence polarisation. The conditions noted are these: N at position 8 = THF abasic site. For orientation: In fluorescence polarisation assays a small probe gives low polarisation when free and higher when bound to something large.
Series [2] addresses DDB1 (human wild-type DDB1) (human, UniProt Q16531 1-1140). Put plainly: cryo-EM structure.

The results in this text go back to article PMC6611726 (Nature, 2019).

DDB1 (UV-DDB subunit);DDB2 (UV-DDB subunit) (human;human), sequence (Q16531 whole entry, chain 1 of 2, one chain of several): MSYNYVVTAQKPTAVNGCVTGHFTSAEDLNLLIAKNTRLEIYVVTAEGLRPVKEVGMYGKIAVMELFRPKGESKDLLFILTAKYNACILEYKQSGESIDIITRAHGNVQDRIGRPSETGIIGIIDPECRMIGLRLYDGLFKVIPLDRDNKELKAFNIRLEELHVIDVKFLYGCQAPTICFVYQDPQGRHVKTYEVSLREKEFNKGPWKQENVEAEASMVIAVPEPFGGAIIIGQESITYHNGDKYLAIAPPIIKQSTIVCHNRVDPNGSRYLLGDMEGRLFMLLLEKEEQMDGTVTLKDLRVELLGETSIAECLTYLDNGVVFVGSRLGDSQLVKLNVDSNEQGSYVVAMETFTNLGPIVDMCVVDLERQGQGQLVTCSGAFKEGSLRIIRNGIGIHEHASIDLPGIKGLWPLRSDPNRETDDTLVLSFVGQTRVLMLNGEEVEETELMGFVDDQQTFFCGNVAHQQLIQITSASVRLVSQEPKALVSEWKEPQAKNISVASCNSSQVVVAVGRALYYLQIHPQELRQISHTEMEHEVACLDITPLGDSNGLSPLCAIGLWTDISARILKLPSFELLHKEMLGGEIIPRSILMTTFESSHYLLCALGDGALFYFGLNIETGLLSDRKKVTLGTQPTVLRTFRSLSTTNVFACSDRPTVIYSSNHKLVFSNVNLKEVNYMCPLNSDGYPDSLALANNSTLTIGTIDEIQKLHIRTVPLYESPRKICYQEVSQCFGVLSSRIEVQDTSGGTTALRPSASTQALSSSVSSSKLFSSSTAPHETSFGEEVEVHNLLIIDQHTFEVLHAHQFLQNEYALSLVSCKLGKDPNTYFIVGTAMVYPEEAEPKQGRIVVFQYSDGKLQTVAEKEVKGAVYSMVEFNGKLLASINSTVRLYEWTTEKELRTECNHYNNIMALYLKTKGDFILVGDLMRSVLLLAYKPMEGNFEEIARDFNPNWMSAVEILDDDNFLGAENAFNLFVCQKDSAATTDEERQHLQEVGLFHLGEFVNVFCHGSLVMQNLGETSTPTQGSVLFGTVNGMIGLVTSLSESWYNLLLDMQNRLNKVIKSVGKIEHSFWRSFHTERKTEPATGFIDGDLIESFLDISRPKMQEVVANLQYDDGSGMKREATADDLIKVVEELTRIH
DDB1 (human wild-type DDB1), sequence (Q16531 whole entry): as the sequence (Q16531 whole entry, chain 1 of 2, one chain of several) above

As for “AATGAATNAAGCAGG / CCTGCTTTATTCATT [Cy5-15-bp-DNA-THF]”, the Kd (as a rule, the constant that tells how readily two partners part at equilibrium) in series [1] was found to be 0.15 nM.

B1: DDB2 (human wild-type DDB2) (natural protein)
chain: MAPKKRPETQKTSEIVLRPRNKRSRSPLELEPEAKKLCAKGSGPSRRCDSDCLWVGLAGPQILPPCRSIVRTLHQHKLGRASWPSVQQGLQQSFLHTLDSYRILQKAAPFDRRATSLAWHPTHPSTVAVGSKGGDIMLWNFGIKDKPTFIKGIGAGGSITGLKFNPLNTNQFYASSMEGTTRLQDFKGNILRVFASSDTINIWFCSLDVSASSRMVVTGDNVGNVILLNMDGKELWNLRMHKKKVTHVALNPCCDWFLATASVDQTVKIWDLRQVRGKASFLYSLPHRHPVNAACFSPDGARLLTTDQKSEIRVYSASQWDCPLGLIPHPHRHFQHLTPIKAAWHPRYNLIVVGRYPDPNFKSCTPYELRTIDVFDGNSGKMMCQLYDPESSGISSLNEFNPMGDTLASAMGYHILIWSQEEARTRK
In the case of B1, the binding result in series [2] is given as “binds”.
